PMC7331980, “Dynamic rotation of the protruding domain enhances the infectivity of norovirus” (PLoS Pathogens, 2020)

B1: VP1 capsid protein of murine norovirus type 1 (MNoV-1), as the capsid of infectious particles (natural protein)
chain: MRMSDGAAPKANGSEASGQDLVPAAVEQAVPIQPVAGAALAAPAAGQINQIDPWIFQNFVQCPLGEFSISPRNTPGEILFDLALGPGLNPYLAHLSAMYTGWVGNMEVQLVLAGNAFTAGKVVVALVPPYFPKGSLTTAQITCFPHVMCDVRTLEPIQLPLLDVRRVLWHATQDQEESMRLVCMLYTPLRTNSPGDESFVVSGRLLSKPAADFNFVYLTPPIERTIYRMVDLPVIQPRLCTHARWPAPVYGLLVDPSLPSNPQWQNGRVHVDGTLLGTTPISGSWVSCFAAEAAYKFQSGTGEVATFTLIEQDGSAYVPGDRAAPLGYPDFSGQLEIEVQTETTKTGDKLKVTTFEMILGPTTNADQAPYQGRVFASVTAAASLDLVDGRVRAVPRSIYGFQDTIPEYNDGLLVPLAPPIGPFLPGEVLLRFRTYMRQIDTADAAAEAIDCALPQEFVSWFASNAFTVQSEALLLRYRNTLTGQLLFECKLYNEGYIALSYSGSGPLTFPTDGIFEVVSWVPRLYQLASVGSLATGRMLKQ
notes: also called MNoV-1 infectious particles; MNoV-1 particles; copies: 180
B2: VP1 capsid protein of murine norovirus type 1 (MNoV-1), as virus-like particles (natural protein, UniProt Q80J94 1-541, looked up)
chain: B1 chain
notes: Major capsid protein VP1 of murine norovirus type 1 (MNoV-1); Formed three types of particles: one large (T = 4) and two small (T = 3, resting and rising P domain conformations), so no single copy number; also called MNoV-1 VLPs; VLPs of MNoV-1; source: baculovirus expression system, purified (CsCl equilibrium ultracentrifugation), stored in DMEM

Tests used:
[1] = target: the molecule itself; assay: cryo-EM structure; single-particle cryo-EM at 200 kV (JEM2200FS); purified particles suspended in DMEM; icosahedral reconstruction
[2] = target: the molecule itself; assay: cryo-EM structure; single-particle analysis (RELION) of MNoV-1 VLPs stored in DMEM; three types of particles reconstructed

Protein | binding result [1] | binding result [2]
B1 | binds | –
B2 | – | binds
